Measurements from patent publication US20240082356A1, “TREATMENT OF COPD BY STIMULATION OF STEM CELL MOBILIZATION” (Therapeutic Solutions International, Inc., priority 2022, published 2024).

System: neutrophil infiltration in COPD like inflammation
Test: Neutrophil infiltration in elastase-induced COPD model
Format: in vivo
Conditions: female BALB/c mice injected with elastase (5 micrograms per mouse); G-CSF 10 micrograms per mouse every second day for one week and pterostilbene 40 mg/kg intraperitoneally; assessed on days 0, 7 and 14
Procedure: Female BALB/c mice, 10 per group, where injected with elastase (5 micrograms per mouse) to induce COPD like inflammation. Mice were given G-CSF (10 micrograms per mouse) every second day for one week and pterostilbene (40 mg/kg) intraperitoneally. Mice were sacrificed on days 0, 7, and 14 and assessed for neutrophil infiltration.

B1: G-CSF: stem cell mobilizer; colony stimulating factor (protein, UniProt P09919 31-207, looked up)
Granulocyte …: TPLGPASSLPQSFLLKCLEQVRKIQGDGAALQEKLVSECATYKLCHPEELVLLGHSLGIPWAPLSSCPSQALQLAGCLSQLHSGLFLYQGLLQALEGISPELGPTLDTLQLDVADFATTIWQQMEELGMAPALQPTQGAMPAFASAFQRRAGGVLVASHLQSFLEVSYRVLRHLAQP
With B1 the “neutrophil infiltration in COPD Model” value was “reduction of neutrophil infiltration”.
